Experiment [1] deals with HLA A*0201 molecule on the surface of T2 cells (human). The experiment is described as follows: T2 cell HLA-A2 stabilisation, 100 µM peptide for 18 h, BB7.2 flow cytometry. For orientation: Flow cytometry measures light scatter and fluorescence of single cells or particles in a stream.
Experiment [2] has the same target. The experiment is described as follows: T2 cell HLA-A2 stabilisation; fold over the mean of no peptide and HLA mismatch B7 peptide.
Experiment [3] shares this target. The conditions noted are these: remark: other sources report otherwise.

Consider three molecules from patent publication US20050232933A1, “CMV-IE1 peptides and method of use” (priority 2003, published 2005).

Read-outs that look alike come from different tables or passages of the source.

VLAELVKQI (modifications not checked) [IE1p81-89] came in with a peak channel in experiment [1] of 495. For the same molecule, in experiment [2], the Fold Increase turned out to be 2 fold.

As for LLSEFCRVL (modifications not checked) [IE1p304-312], in experiment [1], the peak channel came out at 433. Also, the Fold Increase in experiment [2] stood at 1.8 fold.

As to TPRVTGGGAM (modifications not checked) [(-)control B7 T10M], in experiment [3], the Fold Increase was determined as 1 fold and the peak channel is 232.
